Results on 40 sequences are retold here after the supplement of paper PMC7877785.

± gives the uncertainty stated by the source.

This series in a line: self-splicing fitness, log relative to wild type (ln ratio); higher = more splicing; Tetrahymena group I intron in knt gene, E. coli kanamycin selection, DiMSum; sequences stand for … in CUCUCU…GGAGGGAAAAGUUAUCAGGCAUGCACCUGGUAGCUAGUCUUUAAACCAAUAGAUUGCAUCGGUUUAAAAGGCAAGACCGUCAAAUUGCGGGAAAGGGGUCAACAGCCGUUCAGUACCAAGUCUCAGGGGAAACUUUGAGAUGGCCUUGCAAAGGGUAUGGUAAUAAGCUGACGGACAUGGUCCUAACCACGCAGCCAAGUCCUAAGUCAACAGAUCUUCUGUUGAUAUGGAUGCAGUUCACAGACUAAAUGUCGGUCGGGGAAGAUGUAUUCUUCUCAUAAGAUAUAGUCGGACCUCUCCUUAAUGGGAGCUAGCGGAUGAAGUGAUGCAACACUGGAGCCGCUGGGAACUAAUUUGUAUGCGAAAGUAUAUUGAUUAGUUUUGGAGUACUCGUGGUCG
In a few lines:
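Fitness was computed with DiMSum as the error-weighted combination of replicate fold changes, kanamycin versus none, each normalised to wild type. The library randomised all eight intron nucleotides of the P1ex region, with the intron placed in the knt kanamycin-resistance gene on pET-22b(+) in E. coli BL21(DE3). Six replicate transformations were grown overnight at 37°C or 30°C on LB agar with or without 25 μg/mL kanamycin, plus 100 μg/mL carbenicillin, 50 μM IPTG and 0.2% rhamnose. Pooled colonies were amplicon-sequenced on an Illumina HiSeq 2500.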

For UGUGAGCAAUAUUACGAGUC, the “self-splicing fitness (ln)” value (30 °C) was -2.67 ± 0.27.

As for ACCGAGCAAUAUUACGCGGG, the “self-splicing fitness (ln)” value is -3.85 ± 0.18 (30 °C) and -2.89 ± 0.19 (37 °C).

With UCGCAGCAAUAUUACGAAAC, the “self-splicing fitness (ln)” value (37 °C) is -3.1 ± 0.35.

As for UCGGAGCAAUAUUACGUGCG, the “self-splicing fitness (ln)” value is -2.06 ± 0.093 (30 °C) and -1.32 ± 0.11 (37 °C).

As to AGUCAGCAAUAUUACGGCGC, the “self-splicing fitness (ln)” value (30 °C) was -0.611 ± 0.13 and the “self-splicing fitness (ln)” value (37 °C) is -0.0744 ± 0.18.

As to UCUUAGCAAUAUUACGACUA, the “self-splicing fitness (ln)” value (37 °C) is -2.26 ± 0.45.

In the case of CCCGAGCAAUAUUACGAGGC, the “self-splicing fitness (ln)” value (30 °C) is -2.89 ± 0.28 and the “self-splicing fitness (ln)” value (37 °C) is -2.47 ± 0.27.

As for CUCAAGCAAUAUUACGCGCU, the “self-splicing fitness (ln)” value by setting is: (30 °C) -2.36 ± 0.18; (37 °C) -3.39 ± 0.32.

As for GGGAAGCAAUAUUACGUUUC, the “self-splicing fitness (ln)” value reads like this: (30 °C) -3.58 ± 0.19; (37 °C) -2.19 ± 0.29.

For the sequence ACCAAGCAAUAUUACGCUUG, the “self-splicing fitness (ln)” value runs as follows: (30 °C) -2.72 ± 0.21; (37 °C) -3.79 ± 0.36.

GCUUAGCAAUAUUACGAUAA: the “self-splicing fitness (ln)” value by setting is: (30 °C) -2.12 ± 0.13; (37 °C) -1.69 ± 0.12.

As to GUUCAGCAAUAUUACGACUA, the “self-splicing fitness (ln)” value was -1.28 ± 0.17 (30 °C) and -0.368 ± 0.15 (37 °C).

CCUAAGCAAUAUUACGGGAU: the “self-splicing fitness (ln)” value is, setting by setting: (30 °C) -4.35 ± 0.22; (37 °C) -3.29 ± 0.21.

In the case of UGGAAGCAAUAUUACGUAGG, the “self-splicing fitness (ln)” value runs as follows: (30 °C) -1.13 ± 0.067; (37 °C) -1.05 ± 0.092.

As to UCGUAGCAAUAUUACGGGGA, the “self-splicing fitness (ln)” value is, setting by setting: (30 °C) -2.6 ± 0.28; (37 °C) -1.23 ± 0.23.

In the case of AUCUAGCAAUAUUACGUUUA, the “self-splicing fitness (ln)” value is -2.26 ± 0.13 (30 °C) and -2.3 ± 0.13 (37 °C).

Turning to GAUAAGCAAUAUUACGACUC, the “self-splicing fitness (ln)” value runs as follows: (30 °C) 0.0338 ± 0.1; (37 °C) 0.785 ± 0.13.

Consider GCUUAGCAAUAUUACGUAAU, for which the “self-splicing fitness (ln)” value was -0.0411 ± 0.068 (30 °C) and 0.545 ± 0.083 (37 °C).

Turning to UAUUAGCAAUAUUACGCAUA, the “self-splicing fitness (ln)” value (30 °C) is -0.754 ± 0.29 and the “self-splicing fitness (ln)” value (37 °C) was -0.355 ± 0.26.

As for CAUGAGCAAUAUUACGAUGU, the “self-splicing fitness (ln)” value runs as follows: (30 °C) -2.32 ± 0.19; (37 °C) -2.72 ± 0.36.

As for GUCUAGCAAUAUUACGGGGU, the “self-splicing fitness (ln)” value runs as follows: (30 °C) -3.56 ± 0.19; (37 °C) -2.04 ± 0.13.

For UAUAAGCAAUAUUACGGAAC, the “self-splicing fitness (ln)” value by setting is: (30 °C) -4.02 ± 0.42; (37 °C) -2.94 ± 0.41.

Consider GUACAGCAAUAUUACGAUCG, for which the “self-splicing fitness (ln)” value reads like this: (30 °C) -1.67 ± 0.12; (37 °C) -0.932 ± 0.16.

As to UUCCAGCAAUAUUACGAGUC, the “self-splicing fitness (ln)” value reads like this: (30 °C) -2.56 ± 0.13; (37 °C) -1.13 ± 0.15.

For CAGUAGCAAUAUUACGAAUC, for the setting “30 °C”, the “self-splicing fitness (ln)” value was -3.49 ± 0.33.

With AGGCAGCAAUAUUACGGUGC, the “self-splicing fitness (ln)” value reads like this: (30 °C) -3.54 ± 0.16; (37 °C) -2.89 ± 0.2.

AUGUAGCAAUAUUACGGGAG: the “self-splicing fitness (ln)” value is -3.16 ± 0.29 (30 °C) and -2.64 ± 0.44 (37 °C).

For GCCGAGCAAUAUUACGGUAG, the “self-splicing fitness (ln)” value is, setting by setting: (30 °C) -1.99 ± 0.15; (37 °C) -3.24 ± 0.33.

For the sequence CACAAGCAAUAUUACGCCUG, the “self-splicing fitness (ln)” value was -1.87 ± 0.16 (30 °C) and -0.812 ± 0.19 (37 °C).

On to CACCAGCAAUAUUACGCAUG, for which the “self-splicing fitness (ln)” value is, setting by setting: (30 °C) -1.29 ± 0.062; (37 °C) -0.787 ± 0.07.

Regarding UUAUAGCAAUAUUACGUGCC, the “self-splicing fitness (ln)” value was -2.08 ± 0.27 (30 °C) and -0.756 ± 0.35 (37 °C).

On to ACGCAGCAAUAUUACGGGUG, for which the “self-splicing fitness (ln)” value is, setting by setting: (30 °C) -1.56 ± 0.068; (37 °C) -0.519 ± 0.076.

With AUGAAGCAAUAUUACGAGUA, the “self-splicing fitness (ln)” value is, setting by setting: (30 °C) -2.12 ± 0.079; (37 °C) -0.848 ± 0.088.

Turning to AAGCAGCAAUAUUACGCUGU, the “self-splicing fitness (ln)” value (37 °C) is -2.7 ± 0.23.

Regarding GGUAAGCAAUAUUACGCUCU, the “self-splicing fitness (ln)” value was -3.29 ± 0.32 (30 °C) and -2.16 ± 0.35 (37 °C).

As to UAGUAGCAAUAUUACGAGGC, the “self-splicing fitness (ln)” value (30 °C) was -3.45 ± 0.32.

As to GAAUAGCAAUAUUACGAGCG, the “self-splicing fitness (ln)” value (30 °C) was -1.62 ± 0.069 and the “self-splicing fitness (ln)” value (37 °C) is -0.354 ± 0.076.

With CCCUAGCAAUAUUACGCUAU, where the note is “30 °C”, the “self-splicing fitness (ln)” value was -3.92 ± 0.43.

Take UGACAGCAAUAUUACGAAAC: the “self-splicing fitness (ln)” value (30 °C) was -3.96 ± 0.24 and the “self-splicing fitness (ln)” value (37 °C) is -1.96 ± 0.26.

As for UACGAGCAAUAUUACGUUGU, the “self-splicing fitness (ln)” value is -3.36 ± 0.16 (30 °C) and -2.68 ± 0.18 (37 °C).
